From patent US20130052198A1, “ANTI-INFLAMMATORY FACTORS” (THE GENERAL HOSPITAL CORPORATION, priority 2010, published 2013)
“Also recorded” adds a separate entry of the source.

What was measured:
[1] = test system: human leukocytes in culture; experiment: Cytokine production (IL-10 or IFN-γ) in human leukocytes in culture; type: cell-based; settings: concentrations within five orders of magnitude of 10 μg/mL
Method: Leukocytes were prepared from fresh whole human blood, collected and spun in the presence of Ficoll for 30 minutes at 1500×g. The mononuclear cell layer was transferred to a new tube where it was washed once with RPMI 1640. The mononuclear cells were plated at a density of 1×10^5 per well of a 96-well plate in 50 μL of RPMI 1640 per well. MSC-CM was then immediately added to each well and allowed to incubate in the presence of the mononuclear cells for 16 hours. After incubation, 50 μL of RPMI 1640 containing 10 μg/mL of LPS was added to each well and allowed to incubate for an additional 5 hours. The resultant supernatants were collected and analyzed via ELISA for human interleukin-10 (IL-10). This procedure of incubating leukocytes with MSC-CM to determine IL-10 stimulating activity will be henceforth referred to as the “IL-10 assay”.
Preparations and use of MSC-CM, Fb-CM, LPS-stimulated MSC-CM, leukocytes were as described in Examples 1-3 and the Figures. These conditioned media preparations were added to leukocyte cultures for 16 hours, after which the culture was stimulated with LPS at 10 μg/ml. The medium from this culture was collected 24 hours after LPS stimulation of leukocytes and analyzed using an IFN-γ ELISA.

[2] = test system: BALB/cJ mice challenged with a sub-lethal dose of LPS; experiment: In vivo LPS assay, sub-lethal LPS model: serum cytokines and lung histology; settings: for serum IL-10 levels / serum TNF-α: 3 μg protein or 1 mL 1×BMSC-CM IP, twice, 100 μg LPS, 48 h later, compared to saline
Method: FIG. 8: In vivo hit screen and survival study. (a) Schematic of the in vivo LPS assay. Proteins were administered intraperitoneal (IP) at the concentration that elicited the strongest effect in vitro, followed by IP administration of LPS in conjunction with a second dose of the proteins 16 hours later. Two days after the combined LPS and second protein dose, the mice were sacrificed and assessed for changes in serum cytokines and tissue histology. (b) Serum IL-10 levels of BALB/cJ mice subjected to the in vivo LPS assay. * p<0.001 compared to saline. (c) Serum TNF-α levels of BALB/cJ mice subjected to the in vivo LPS assay. * p<0.001 compared to saline, ** p<0.05 compared to BMSC-CM. (d) Representative micrographs of lung tissue from mice subjected to the in vivo LPS assay stained with hematoxylin and eosin. (e) Survival of mice subjected to a lethal dose of LPS i.p. (350 μg) concurrently with i.p. saline vehicle (bold dark blue line), 5 μg Anti-TNF-α antibody (thin dark blue line), 4 μg PENK (bold light blue line) or 4 μg MFAP5 (thin light blue line). Scale bar=200 μm.
All procedures were performed in accordance with the animal rights policies of the Massachusetts General Hospital Subcommittee on Research Animal Care. For the sub-lethal LPS model, eight week old female BALB/cJ mice (n≧3) (Jackson Laboratories, Bar Harbor, Me.) were administered an initial dose of either vehicle or one of the experimental therapies IP: 200 μL of saline (vehicle), or 3 μg of protein (e.g., GALNT1, LGALS3BP, MFAP5 or PENK) diluted in 200 μL of saline, or 1 mL of 1×BMSC-CM. 16 hours later, mice received a second dose of either vehicle or therapy in conjunction with a dose of 100 μg of LPS (E. coli 0111:B4; Sigma, St. Louis, Mo.) diluted in physiological saline. 48 hours later, mice were sacrificed and tissue and blood were collected for analysis. Serum was tested for the presence of IL-10 and TNF-α via ELISA and lungs, livers and kidneys of the animals were preserved for hematoxylin and eosin staining. For the lethal LPS model, eight week old female BALB/cJ mice (n≧5) were co-administered a lethal dose of LPS (350 μg LPS in 100 μL physiological saline) and either vehicle (negative control), 5 μg anti-TNF-α (positive control; R&D Systems, Minneapolis, Minn.), 4 μg MFAP5 diluted in 100 μL of physiological saline, or 4 μg of PENK diluted in 100 μL of physiological saline. Mice were monitored for survival for seven days (168 hours).

[3] = test system: human peripheral blood mononuclear cells (PBMCs); experiment: PBMC potency assay (IL-10 assay): IL-10 secretion by LPS-stimulated PBMCs, ELISA; type: cell-based; settings: recombinant molecules diluted in RPMI 1640
Description: FIG. 1: MSC conditioned medium causes peripheral blood mononuclear cells to secrete IL-10 in response to LPS, providing the basis for differential gene expression analysis to identify genes responsible for the increased activity. (a) Generalized schematic of EPS methodology. Protein products are derived from various cell types in the form of conditioned media and screened for activity in an in vitro potency assay. […] Recombinant protein products of the enriched gene list are then screened in a potency assay and the candidates with the highest activity are assessed for activity in vivo. (b) In vitro potency assay. This assay entails incubating primary human peripheral blood mononuclear cells (PBMCs) in the presence of protein products (e.g., conditioned medium from a cell) for 16 hours, followed by stimulation of the PBMCs with LPS for five hours, and measurement of IL-10 secretion into the supernatant via ELISA. (c) Time course of IL-10 expression from PBMCs when incubated with either bone marrow stromal cell conditioned medium (BMSC-CM) or unconditioned medium (DMEM) in the potency assay. (d) Comparison of potency assay activity of conditioned medium from normal human dermal fibroblasts (FB-CM), BMSCs (BMSC-CM) and BMSCs preincubated with LPS prior to conditioning (BMSCLPS-CM). * p<0.001 compared to FB-CM, ** p<0.001 compared to BMSC-CM. (e) Schematic of the differential gene expression comparison strategy to select for genes uniquely expressed at high levels in LPS stimulated MSCs (MSCLPS) compared to MSCs and fibroblasts (FBs). Analysis was then conducted on the genes identified to select for genes that were most likely to be responsible for secreted proteins. MSCLPS, LPS stimulated MSC; FB, fibroblast. […]
Leukocytes were prepared from fresh whole human blood, collected and spun in the presence of Ficoll for 30 minutes at 1500×g. […] The resultant supernatants were collected and analyzed via ELISA for human interleukin-10 (IL-10). […]

[4] = test system: colitic mice (TNBS colitis); experiment: TNBS colitis in mice, colon histopathology; type: in vivo; settings: 3 μg protein twice over 24 h; sacrifice at day 2; compared to vehicle (saline)
Method: FIG. 6: Administered MFAP5 and LGALS3BP protect mice from developing TNBS colitis. Mice were presensitized via the skin with 1% TNBS one week prior to intra-rectal administration of 3 mg of TNBS per mouse in a mixture of 50% EtOH and 50% sterile water to induce colitis. Mice were treated with 3 μg each of MFAP5, LGALS3BP and GALNT1 twice over a 24 hour period, once in conjunction with the TNBS administration and once 24 hours later. Mice were then sacrificed at day 2 and tissue collected for analysis. As expected, mice treated with vehicle (saline) developed extensive inflammation of the colon with loss of crypts and frank necrosis of the intestinal epithelium.
MFAP5, LGALS3BP and PENK all protected the colonic epithelium from the hallmark features of TNBS colitis: necrosis, inflammatory infiltrate and loss of crypts. Especially at the microscopic level, the tissue of the MFAP5, LGALS3BP and PENK treated animals looked mostly normal with minor foci of inflammation and edema.

Molecule	promote IL-10 production or suppress IFN-γ production [1]	serum IL-10 levels [2]	serum TNF-α [2]	lung histology (lung protection) ([2]; hematoxylin and eosin, sub-lethal LPS model, compared to vehicle)	increase of IL-10 production compared to 10×MSC-CM [3]	protection from TNBS colitis (colon histopathology) [4]
TFPI2: isolated and purified molecular product of the gene TFPI2 (protein, UniProt P48307 23-235, looked up) Tissue factor pathway …: DAAQEPTGNNAEICLLPLDYGPCRALLLRYYYDRYTQSCRQFLYGGCEGNANNFYTWEACDDACWRIEKVPKVCRLQVSVDDQCEGSTEKYFFNLSSMTCEKFFSGGCHRNRIENRFPDEATCMGFCAPKKIPSFCYSPKDEGLCSANVTRYYFNPRYRTCDAFTYTGCGGNDNNFVSREDCKRACAKALKKKKKMPKLRFASRIRKIRKKQF	either promote IL-10 production or suppress IFN-γ production	–	–	–	–	–
CRLF1: isolated and purified molecular product of the gene CRLF1 (protein, UniProt O75462 38-422, looked up) Cytokine receptor-like factor …: AHTAVISPQDPTLLIGSSLLATCSVHGDPPGATAEGLYWTLNGRRLPPELSRVLNASTLALALANLNGSRQRSGDNLVCHARDGSILAGSCLYVGLPPEKPVNISCWSKNMKDLTCRWTPGAHGETFLHTNYSLKYKLRWYGQDNTCEEYHTVGPHSCHIPKDLALFTPYEIWVEATNRLGSARSDVLTLDILDVVTTDPPPDVHVSRVGGLEDQLSVRWVSPPALKDFLFQAKYQIRYRVEDSVDWKVVDDVSNQTSCRLAGLKPGTVYFVQVRCNPFGIYGSKKAGIWSEWSHPTAASTPRSERPGPGGGACEPRGGEPSSGPVRRELKQFLGWLKKHAYCSNLSFRLYDQWRAWMQKSHKTRNQDEGILPSGRRGTARGPAR	either promote IL-10 production or suppress IFN-γ production	–	–	–	–	–
UDP-N-acetyl-α-D-galactosamine:polypeptide N-acetylgalactosaminyltransferase 1 (protein, UniProt Q10472 1-559, looked up, recombinant protein product of the GALNT1 gene, secreted factor of marrow stromal cells) Polypeptide …: MRKFAYCKVVLATSLIWVLLDMFLLLYFSECNKCDEKKERGLPAGDVLEPVQKPHEGPGEMGKPVVIPKEDQEKMKEMFKINQFNLMASEMIALNRSLPDVRLEGCKTKVYPDNLPTTSVVIVFHNEAWSTLLRTVHSVINRSPRHMIEEIVLVDDASERDFLKRPLESYVKKLKVPVHVIRMEQRSGLIRARLKGAAVSKGQVITFLDAHCECTVGWLEPLLARIKHDRRTVVCPIIDVISDDTFEYMAGSDMTYGGFNWKLNFRWYPVPQREMDRRKGDRTLPVRTPTMAGGLFSIDRDYFQEIGTYDAGMDIWGGENLEISFRIWQCGGTLEIVTCSHVGHVFRKATPYTFPGGTGQIINKNNRRLAEVWMDEFKNFFYIISPGVTKVDYGDISSRVGLRHKLQCKPFSWYLENIYPDSQIPRHYFSLGEIRNVETNQCLDNMARKENEKVGIFNCHGMGGNQVFSYTANKEIRTDDLCLDVSKLNGPVTMLKCHHLKGNQLWEYDPVKLTLQHVNSNQCLDKATEEDSQVPSIRDCNGSRSQQWLLRNVTLPEIF	either promote IL-10 production or suppress IFN-γ production	Significantly elevated	not	moderate protection	superior to that induced by 10×MSC-CM	not protected from development of colitis
LGALS3BP: Soluble galectin 3 binding protein, highly glycosylated secreted protein; recombinant form tested (protein, UniProt Q08380 19-585, looked up) Galectin-3-binding protein: VNDGDMRLADGGATNQGRVEIFYRGQWGTVCDNLWDLTDASVVCRALGFENATQALGRAAFGQGSGPIMLDEVQCTGTEASLADCKSLGWLKSNCRHERDAGVVCTNETRSTHTLDLSRELSEALGQIFDSQRGCDLSISVNVQGEDALGFCGHTVILTANLEAQALWKEPGSNVTMSVDAECVPMVRDLLRYFYSRRIDITLSSVKCFHKLASAYGARQLQGYCASLFAILLPQDPSFQMPLDLYAYAVATGDALLEKLCLQFLAWNFEALTQAEAWPSVPTDLLQLLLPRSDLAVPSELALLKAVDTWSWGERASHEEVEGLVEKIRFPMMLPEELFELQFNLSLYWSHEALFQKKTLQALEFHTVPFQLLARYKGLNLTEDTYKPRIYTSPTWSAFVTDSSWSARKSQLVYQSRRGPLVKYSSDYFQAPSDYRYYPYQSFQTPQHPSFLFQDKRVSWSLVYLPTIQSCWNYGFSCSSDELPVLGLTKSGGSDRTIAYENKALMLCEGLFVADVTDFEGWKAAIPSALDTNSSKSTSSFPCPAGHFNGFRTVIRPFYLTNSSGVD	either promote IL-10 production or suppress IFN-γ production	no IL-10 response	significantly suppressed	–	superior to that induced by 10×MSC-CM	protect the mice from developing acute colitis; also recorded: significant attenuation of colitis; also recorded: protected from developing extensive colonic inflammation
